Numbered stars: 1 amine (or outer) side, 2 acyl side, 3 side chain; on linkers, the order of the positions; unused ones are H or OH. Bridge positions count the residues as written; N and C are the ends. Side chains are listed from the residue outwards. Ends that are not written are not given here. * marks the point of attachment. C20 diacid = O=C(O)CCCCCCCCCCCCCCCCCCC(=O)*; γGlu = O=C(O)[C@H](CCC(=O)[*:2])N[*:1]
T1: human calcitonin receptor (human, UniProt P30988 25-474)
T1 sequence (looked up): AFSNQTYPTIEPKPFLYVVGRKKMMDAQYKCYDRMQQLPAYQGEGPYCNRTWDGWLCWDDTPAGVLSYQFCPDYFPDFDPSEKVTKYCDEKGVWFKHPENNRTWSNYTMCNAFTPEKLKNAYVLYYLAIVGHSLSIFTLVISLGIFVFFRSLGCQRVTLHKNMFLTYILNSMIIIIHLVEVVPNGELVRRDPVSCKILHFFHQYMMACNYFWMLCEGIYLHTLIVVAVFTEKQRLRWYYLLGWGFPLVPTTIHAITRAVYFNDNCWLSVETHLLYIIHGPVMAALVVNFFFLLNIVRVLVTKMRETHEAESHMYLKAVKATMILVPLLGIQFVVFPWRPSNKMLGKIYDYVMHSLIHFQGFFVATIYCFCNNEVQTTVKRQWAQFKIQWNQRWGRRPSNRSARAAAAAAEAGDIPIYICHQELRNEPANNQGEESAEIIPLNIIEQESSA

T2: human amylin receptor (amylin 3(a) receptor: human calcitonin receptor with RAMP-3) (human, UniProt P30988 25-474; O60896 24-148, limits assumed)
T2 construct: whole, on cells; Whole cells in the luciferase assay (Assay II a); also called hAmylin-R; hAmylinR
T2 sequence (looked up) 1: T1 sequence (looked up)
T2 sequence (looked up) 2: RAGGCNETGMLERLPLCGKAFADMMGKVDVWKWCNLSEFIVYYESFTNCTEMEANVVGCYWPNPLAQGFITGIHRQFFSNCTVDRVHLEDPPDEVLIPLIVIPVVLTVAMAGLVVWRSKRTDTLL

B1: N^ε1-[(4S)-4-carboxy-4-(19-carboxynonadecanoylamino)butanoyl]-[Glu14,Arg17,Pro21,Pro27,Pro34,Pro37]-h-amylin (peptide)
peptide: K([γGlu-C20 diacid])CNTATCATQRLAEFLRHSSPNFGAIPSSTNVGPNTP-NH2
modifications: disulfide 2-7; N-terminus assumed
SMILES: CC[C@H](C)[C@H](NC(=O)[C@H](C)NC(=O)CNC(=O)[C@H](Cc1ccccc1)NC(=O)[C@H](CC(N)=O)NC(=O)[C@@H]1CCCN1C(=O)[C@H](CO)NC(=O)[C@H](CO)NC(=O)[C@H](Cc1c[nH]cn1)NC(=O)[C@H](CCCNC(=N)N)NC(=O)[C@H](CC(C)C)NC(=O)[C@H](Cc1ccccc1)NC(=O)[C@H](CCC(=O)O)NC(=O)[C@H](C)NC(=O)[C@H](CC(C)C)NC(=O)[C@H](CCCNC(=N)N)NC(=O)[C@H](CCC(N)=O)NC(=O)[C@@H](NC(=O)[C@H](C)NC(=O)[C@@H]1CSSC[C@H](NC(=O)[C@@H](N)CCCCNC(=O)CC[C@H](NC(=O)CCCCCCCCCCCCCCCCCCC(=O)O)C(=O)O)C(=O)N[C@@H](CC(N)=O)C(=O)N[C@@H]([C@@H](C)O)C(=O)N[C@@H](C)C(=O)N[C@@H]([C@@H](C)O)C(=O)N1)[C@@H](C)O)C(=O)N1CCC[C@H]1C(=O)N[C@@H](CO)C(=O)N[C@@H](CO)C(=O)N[C@H](C(=O)N[C@@H](CC(N)=O)C(=O)N[C@H](C(=O)NCC(=O)N1CCC[C@H]1C(=O)N[C@@H](CC(N)=O)C(=O)N[C@H](C(=O)N1CCC[C@H]1C(N)=O)[C@@H](C)O)C(C)C)[C@@H](C)O
B2: N^ε1-[(4S)-4-carboxy-4-[[(4S)-4-carboxy-4-(19-carboxynonadecanoylamino)butanoyl]amino]butanoyl]-[Glu14,Arg17,Pro21,Pro27,Pro37]-h-amylin (peptide)
peptide: K([γGlu-γGlu-C20 diacid])CNTATCATQRLAEFLRHSSPNFGAIPSSTNVGSNTP-NH2
modifications: disulfide 2-7; N-terminus assumed
SMILES: CC[C@H](C)[C@H](NC(=O)[C@H](C)NC(=O)CNC(=O)[C@H](Cc1ccccc1)NC(=O)[C@H](CC(N)=O)NC(=O)[C@@H]1CCCN1C(=O)[C@H](CO)NC(=O)[C@H](CO)NC(=O)[C@H](Cc1c[nH]cn1)NC(=O)[C@H](CCCNC(=N)N)NC(=O)[C@H](CC(C)C)NC(=O)[C@H](Cc1ccccc1)NC(=O)[C@H](CCC(=O)O)NC(=O)[C@H](C)NC(=O)[C@H](CC(C)C)NC(=O)[C@H](CCCNC(=N)N)NC(=O)[C@H](CCC(N)=O)NC(=O)[C@@H](NC(=O)[C@H](C)NC(=O)[C@@H]1CSSC[C@H](NC(=O)[C@@H](N)CCCCNC(=O)CC[C@H](NC(=O)CC[C@H](NC(=O)CCCCCCCCCCCCCCCCCCC(=O)O)C(=O)O)C(=O)O)C(=O)N[C@@H](CC(N)=O)C(=O)N[C@@H]([C@@H](C)O)C(=O)N[C@@H](C)C(=O)N[C@@H]([C@@H](C)O)C(=O)N1)[C@@H](C)O)C(=O)N1CCC[C@H]1C(=O)N[C@@H](CO)C(=O)N[C@@H](CO)C(=O)N[C@H](C(=O)N[C@@H](CC(N)=O)C(=O)N[C@H](C(=O)NCC(=O)N[C@@H](CO)C(=O)N[C@@H](CC(N)=O)C(=O)N[C@H](C(=O)N1CCC[C@H]1C(N)=O)[C@@H](C)O)C(C)C)[C@@H](C)O
notes: also called compound 13
B3: N^ε1-[(4S)--4-carboxy-4-(19-carboxynonadecanoylamino)butanoyl]-[Glu14,Arg17,Pro21,Pro27,Pro37]-h-amylin (peptide)
peptide: K([γGlu-C20 diacid])CNTATCATQRLAEFLRHSSPNFGAIPSSTNVGSNTP-NH2
modifications: disulfide 2-7; N-terminus assumed
SMILES: CC[C@H](C)[C@H](NC(=O)[C@H](C)NC(=O)CNC(=O)[C@H](Cc1ccccc1)NC(=O)[C@H](CC(N)=O)NC(=O)[C@@H]1CCCN1C(=O)[C@H](CO)NC(=O)[C@H](CO)NC(=O)[C@H](Cc1c[nH]cn1)NC(=O)[C@H](CCCNC(=N)N)NC(=O)[C@H](CC(C)C)NC(=O)[C@H](Cc1ccccc1)NC(=O)[C@H](CCC(=O)O)NC(=O)[C@H](C)NC(=O)[C@H](CC(C)C)NC(=O)[C@H](CCCNC(=N)N)NC(=O)[C@H](CCC(N)=O)NC(=O)[C@@H](NC(=O)[C@H](C)NC(=O)[C@@H]1CSSC[C@H](NC(=O)[C@@H](N)CCCCNC(=O)CC[C@H](NC(=O)CCCCCCCCCCCCCCCCCCC(=O)O)C(=O)O)C(=O)N[C@@H](CC(N)=O)C(=O)N[C@@H]([C@@H](C)O)C(=O)N[C@@H](C)C(=O)N[C@@H]([C@@H](C)O)C(=O)N1)[C@@H](C)O)C(=O)N1CCC[C@H]1C(=O)N[C@@H](CO)C(=O)N[C@@H](CO)C(=O)N[C@H](C(=O)N[C@@H](CC(N)=O)C(=O)N[C@H](C(=O)NCC(=O)N[C@@H](CO)C(=O)N[C@@H](CC(N)=O)C(=O)N[C@H](C(=O)N1CCC[C@H]1C(N)=O)[C@@H](C)O)C(C)C)[C@@H](C)O
notes: also called compound 12
B4: N^ε1-[(4S)-4-carboxy-4-[[(4S)-4-carboxy-4-(19-carboxynonadecanoylamino)butanoyl]amino]butanoyl]-[Glu14,Arg17,Pro21,Pro27,Pro34,Glu35,Pro37]-h-amylin (peptide)
peptide: K([γGlu-γGlu-C20 diacid])CNTATCATQRLAEFLRHSSPNFGAIPSSTNVGPETP-NH2
modifications: disulfide 2-7; N-terminus assumed
SMILES: CC[C@H](C)[C@H](NC(=O)[C@H](C)NC(=O)CNC(=O)[C@H](Cc1ccccc1)NC(=O)[C@H](CC(N)=O)NC(=O)[C@@H]1CCCN1C(=O)[C@H](CO)NC(=O)[C@H](CO)NC(=O)[C@H](Cc1c[nH]cn1)NC(=O)[C@H](CCCNC(=N)N)NC(=O)[C@H](CC(C)C)NC(=O)[C@H](Cc1ccccc1)NC(=O)[C@H](CCC(=O)O)NC(=O)[C@H](C)NC(=O)[C@H](CC(C)C)NC(=O)[C@H](CCCNC(=N)N)NC(=O)[C@H](CCC(N)=O)NC(=O)[C@@H](NC(=O)[C@H](C)NC(=O)[C@@H]1CSSC[C@H](NC(=O)[C@@H](N)CCCCNC(=O)CC[C@H](NC(=O)CC[C@H](NC(=O)CCCCCCCCCCCCCCCCCCC(=O)O)C(=O)O)C(=O)O)C(=O)N[C@@H](CC(N)=O)C(=O)N[C@@H]([C@@H](C)O)C(=O)N[C@@H](C)C(=O)N[C@@H]([C@@H](C)O)C(=O)N1)[C@@H](C)O)C(=O)N1CCC[C@H]1C(=O)N[C@@H](CO)C(=O)N[C@@H](CO)C(=O)N[C@H](C(=O)N[C@@H](CC(N)=O)C(=O)N[C@H](C(=O)NCC(=O)N1CCC[C@H]1C(=O)N[C@@H](CCC(=O)O)C(=O)N[C@H](C(=O)N1CCC[C@H]1C(N)=O)[C@@H](C)O)C(C)C)[C@@H](C)O
B5: N^ε1-[(4S)-4-carboxy-4-(19-carboxynonadecanoylamino)butanoyl]-[His14,Arg17,Pro21,Pro27,Pro34,Pro37]-h-amylin (peptide)
peptide: K([γGlu-C20 diacid])CNTATCATQRLAHFLRHSSPNFGAIPSSTNVGPNTP-NH2
modifications: disulfide 2-7; N-terminus assumed
SMILES: CC[C@H](C)[C@H](NC(=O)[C@H](C)NC(=O)CNC(=O)[C@H](Cc1ccccc1)NC(=O)[C@H](CC(N)=O)NC(=O)[C@@H]1CCCN1C(=O)[C@H](CO)NC(=O)[C@H](CO)NC(=O)[C@H](Cc1c[nH]cn1)NC(=O)[C@H](CCCNC(=N)N)NC(=O)[C@H](CC(C)C)NC(=O)[C@H](Cc1ccccc1)NC(=O)[C@H](Cc1c[nH]cn1)NC(=O)[C@H](C)NC(=O)[C@H](CC(C)C)NC(=O)[C@H](CCCNC(=N)N)NC(=O)[C@H](CCC(N)=O)NC(=O)[C@@H](NC(=O)[C@H](C)NC(=O)[C@@H]1CSSC[C@H](NC(=O)[C@@H](N)CCCCNC(=O)CC[C@H](NC(=O)CCCCCCCCCCCCCCCCCCC(=O)O)C(=O)O)C(=O)N[C@@H](CC(N)=O)C(=O)N[C@@H]([C@@H](C)O)C(=O)N[C@@H](C)C(=O)N[C@@H]([C@@H](C)O)C(=O)N1)[C@@H](C)O)C(=O)N1CCC[C@H]1C(=O)N[C@@H](CO)C(=O)N[C@@H](CO)C(=O)N[C@H](C(=O)N[C@@H](CC(N)=O)C(=O)N[C@H](C(=O)NCC(=O)N1CCC[C@H]1C(=O)N[C@@H](CC(N)=O)C(=O)N[C@H](C(=O)N1CCC[C@H]1C(N)=O)[C@@H](C)O)C(C)C)[C@@H](C)O
B6: N^ε1-[(4S)-4-carboxy-4-(19-carboxynonadecanoylamino)butanoyl]-[His14,Arg17,Pro21,Pro27,Pro31,Pro34]-h-amylin (peptide)
peptide: K([γGlu-C20 diacid])CNTATCATQRLAHFLRHSSPNFGAIPSSTPVGPNTY-NH2
modifications: disulfide 2-7; N-terminus assumed
SMILES: CC[C@H](C)[C@H](NC(=O)[C@H](C)NC(=O)CNC(=O)[C@H](Cc1ccccc1)NC(=O)[C@H](CC(N)=O)NC(=O)[C@@H]1CCCN1C(=O)[C@H](CO)NC(=O)[C@H](CO)NC(=O)[C@H](Cc1c[nH]cn1)NC(=O)[C@H](CCCNC(=N)N)NC(=O)[C@H](CC(C)C)NC(=O)[C@H](Cc1ccccc1)NC(=O)[C@H](Cc1c[nH]cn1)NC(=O)[C@H](C)NC(=O)[C@H](CC(C)C)NC(=O)[C@H](CCCNC(=N)N)NC(=O)[C@H](CCC(N)=O)NC(=O)[C@@H](NC(=O)[C@H](C)NC(=O)[C@@H]1CSSC[C@H](NC(=O)[C@@H](N)CCCCNC(=O)CC[C@H](NC(=O)CCCCCCCCCCCCCCCCCCC(=O)O)C(=O)O)C(=O)N[C@@H](CC(N)=O)C(=O)N[C@@H]([C@@H](C)O)C(=O)N[C@@H](C)C(=O)N[C@@H]([C@@H](C)O)C(=O)N1)[C@@H](C)O)C(=O)N1CCC[C@H]1C(=O)N[C@@H](CO)C(=O)N[C@@H](CO)C(=O)N[C@H](C(=O)N1CCC[C@H]1C(=O)N[C@H](C(=O)NCC(=O)N1CCC[C@H]1C(=O)N[C@@H](CC(N)=O)C(=O)N[C@H](C(=O)N[C@@H](Cc1ccc(O)cc1)C(N)=O)[C@@H](C)O)C(C)C)[C@@H](C)O

target: T1, human calcitonin receptor; experiment: cell-based or functional assay

Ratio hCT/hAmylin funct. [ratio] | hCTR funct. EC50 (pM) | Binder
2.1 |  | {C20 diacid-γGlu}-GRCNTATCATQRLAAFLRHSSPNFGAIPSSTNVGPNTY-NH2 (disulfide 3-8 (inferred))
0.9 |  | B1
2.2 |  | B2
1.8 |  | B3
0.8 | 102 | B4
0.8 |  | B5
4.9 |  | B6

target: T2, human amylin receptor (amylin 3(a) …); experiment: SPA competition binding on membranes of BHK cells with human calcitonin receptor + RAMP-3; displacement of 125I-rat amylin (Assay V)
In short: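 One-site competition analysis of SPA counts yielded IC₅₀ as a measure of affinity. Membranes were at 35 ng/μL final; incubation was 120 min at 25° C, pH 7.4.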

IC50 [pM] | Binder
114 | {C20 diacid-γGlu}-GRCNTATCATQRLAAFLRHSSPNFGAIPSSTNVGPNTY-NH2 (disulfide 3-8 (inferred))
214 | B1
264 | B2
142 | B3
533 | B4
131 | B5
82 | B6

Source: US20140087995A1 (published 2014)
